Where a chain is given by its changes, count along the chain named.
T1: FcγRIIb extracellular domain with C-terminal His tag (human, UniProt P31994 43-217)
T1 construct: extracellular domain; also called FcgRIIb
T1 sequence (looked up): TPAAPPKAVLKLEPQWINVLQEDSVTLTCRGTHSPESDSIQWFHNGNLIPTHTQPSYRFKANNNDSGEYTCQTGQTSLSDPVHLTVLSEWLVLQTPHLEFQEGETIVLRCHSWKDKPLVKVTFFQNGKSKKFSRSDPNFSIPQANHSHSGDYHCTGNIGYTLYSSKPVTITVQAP

T2: FcγRIIa type R (human, UniProt P12318 34-217)
T2 chain: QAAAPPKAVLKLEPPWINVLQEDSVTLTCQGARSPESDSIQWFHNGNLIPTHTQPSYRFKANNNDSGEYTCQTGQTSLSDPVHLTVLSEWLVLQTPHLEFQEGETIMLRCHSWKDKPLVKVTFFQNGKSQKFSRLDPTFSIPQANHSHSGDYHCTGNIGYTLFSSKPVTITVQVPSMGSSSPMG

T3: FcγRIIb (human, UniProt P31994 43-217)
T3 construct: extracellular domain; also called FcgRIIb; CD32B
T3 sequence (looked up): T1 sequence (looked up)

B1: IL6R-BP192/IL6R-L (antibody, human IgG1, kappa)
heavy: QVQLQESGPGLVKPSETLSLTCAVSGHSISHDHAWSWVRQPPGEGLEWIGFISYSGITNYNPSLQGRVTISRDNSKNTLYLQMNSLRAEDTAVYYCARSLARTTAMDYWGEGTLVTVSSASTKGPSVFPLAPSSKSTSGGTAALGCLVKDYFPEPVTVSWNSGALTSGVHTFPAVLQSSGLYSLSSVVTVPSSSLGTQTYICNVNHKPSNTKVDKKVEPKSCDKTHTCPPCPAPDLLGGDSVFLFPPKPKDTLMISRTPEVTCVVVDVSDEDGEVKFNWYVDGVEVHNAKTKPREEQDNSTYRVVSVLTVLHQDWLNGKEYKCKVSNKALPKPIEKTISKAKGQPREPQVYTLPPSRDELTKNQVSLTCLVKGFYPSDIAVEWESNGQPENNYKTTPPVLDSDGSFFLYSKLTVDKSRWQQGNVFSCSVMHEALHNHYTQESLSLSP
light: not shown
B2: IL6R-BP493/IL6R-L (antibody, human IgG1, kappa)
heavy: B1 heavy with D235E, V266I, S269A, D270E, K332A
light: not shown
notes: Alterations in EU numbering, introduced into IL6R-B3
B3: IL6R-BP537/IL6R-L (antibody, human IgG1, kappa)
heavy: B1 heavy with D235E, G239D, V266I, S269G, D270E, D298Y, K332R
light: not shown
notes: as for B2
B4: IL6R-BP555/IL6R-L (antibody, human IgG1, kappa)
heavy: B1 heavy with D235E, G239D, V266I, S269A, D270E, E274D, K332R
light: not shown
notes: as for B2
B5: IL6R-BP492/IL6R-L (antibody, human IgG1, kappa)
heavy: B1 heavy with D235E, V266I, S269A, D270E, D298Y, K332A
light: not shown
notes: as for B2
B6: IL6R-BP490/IL6R-L (antibody, human IgG1, kappa)
heavy: B1 heavy with D235E, G239D, V266I, S269A, D270E, D298Y, K332R
light: not shown
notes: as for B2
B7: IL6R-BP269/IL6R-L (antibody, human IgG1, kappa)
heavy: B1 heavy with D235E, G239D, D270E, K332A
light: not shown
notes: as for B2
B8: IL6R-BP557/IL6R-L (antibody, human IgG1, kappa)
heavy: B1 heavy with D235E, G239D, S269G, K332R
light: not shown
notes: as for B2
B9: IL6R-BP501/IL6R-L (antibody, human IgG1, kappa)
heavy: B1 heavy with D235E, G239D, V266I, S269A, D270E, D298Y, K332A
light: not shown
notes: as for B2
B10: IL6R-BP205/IL6R-L (antibody, human IgG1, kappa)
heavy: B1 heavy with D270H, K332R
light: not shown
B11: IL6R-BP262/IL6R-L (antibody, human IgG1, kappa)
heavy: B1 heavy with D235E, G239D, D270E, D298Y, K332A
light: not shown
notes: as for B2
B12: IL6R-BP507/IL6R-L (antibody, human IgG1, kappa)
heavy: B1 heavy with G239D, V266I, S269A, D270E, E274P, D298Y, K332R
light: not shown
notes: as for B2
B13: IL6R-BP193/IL6R-L (antibody, human IgG1, kappa)
heavy: B1 heavy with D298Y
light: not shown
B14: IL6R-BP506/IL6R-L (antibody, human IgG1, kappa)
heavy: B1 heavy with G239D, V266I, S269A, D270E, E274P, K332R
light: not shown
notes: as for B2
B15: IL6R-BP535/IL6R-L (antibody, human IgG1, kappa)
heavy: B1 heavy with G239D, V266I, S269G, D270E, A329G, K332R, P398M
light: not shown
notes: as for B2
B16: IL6R-BP268/IL6R-L (antibody, human IgG1, kappa)
heavy: B1 heavy with G239D, D270E, K332A
light: not shown
notes: as for B2
B17: IL6R-BP426/IL6R-L (antibody, human IgG1, kappa)
heavy: B1 heavy with G239D, S269A, D270E, E271D, D298Y, K332R
light: not shown
notes: as for B2
B18: IL6R-BP500/IL6R-L (antibody, human IgG1, kappa)
heavy: B1 heavy with D235E, G239D, V266I, S269A, D270E, K332A
light: not shown
notes: as for B2
B19: IL6R-BP553/IL6R-L (antibody, human IgG1, kappa)
heavy: B1 heavy with G239D, V266I, S269A, D270E, E274D, D298Y, K332R
light: not shown
notes: as for B2
B20: IL6R-BP484/IL6R-L (antibody, human IgG1, kappa)
heavy: B1 heavy with G239D, S269A, D270E, E271D, D298Y, K332A
light: not shown
notes: as for B2
B21: IL6R-BP483/IL6R-L (antibody, human IgG1, kappa)
heavy: B1 heavy with G239D, V268L, S269A, D270E, D298Y, K332A
light: not shown
notes: as for B2
B22: IL6R-BP494/IL6R-L (antibody, human IgG1, kappa)
heavy: B1 heavy with D235E, G239D, S269A, D270E, K332R
light: not shown
notes: as for B2
B23: IL6R-BP480/IL6R-L (antibody, human IgG1, kappa)
heavy: B1 heavy with G239D, V268L, D270E, E271D, D298Y, K332A
light: not shown
notes: as for B2
B24: IL6R-BP445/IL6R-L (antibody, human IgG1, kappa)
heavy: B1 heavy with G239D, V266I, S269A, D270E, D298Y, K332R
light: not shown
notes: as for B2
B25: IL6R-BP204/IL6R-L (antibody, human IgG1, kappa)
heavy: B1 heavy with D270H, D298Y, K328A, K332R
light: not shown
B26: IL6R-BP479/IL6R-L (antibody, human IgG1, kappa)
heavy: B1 heavy with G239D, V266I, V268L, S269A, D270E, D298Y, K332A
light: not shown
notes: as for B2
B27: IL6R-BP534/IL6R-L (antibody, human IgG1, kappa)
heavy: B1 heavy with G239D, V266I, D270E, K332R, P398L
light: not shown
notes: as for B2
B28: IL6R-BP481/IL6R-L (antibody, human IgG1, kappa)
heavy: B1 heavy with G239D, V266I, S269A, D270E, D298Y, K332A
light: not shown
notes: as for B2
B29: IL6R-BP552/IL6R-L (antibody, human IgG1, kappa)
heavy: B1 heavy with G239D, V266I, S269A, D270E, E274D, K332R
light: not shown
notes: as for B2
B30: IL6R-BP435/IL6R-L (antibody, human IgG1, kappa)
heavy: B1 heavy with G239D, K328A, K332R, I334T
light: not shown
notes: as for B2
B31: IL6R-BP531/IL6R-L (antibody, human IgG1, kappa)
heavy: B1 heavy with G239D, V266I, S269G, D270E, K332R, P398M
light: not shown
notes: as for B2
B32: IL6R-BP495/IL6R-L (antibody, human IgG1, kappa)
heavy: B1 heavy with D235E, G239D, S269G, D270E, K332R
light: not shown
notes: as for B2
B33: IL6R-BP532/IL6R-L (antibody, human IgG1, kappa)
heavy: B1 heavy with G239D, V266I, D270E, K332R, P398M
light: not shown
notes: as for B2

Tests used:
[1] = molecular target: T4, FcγRIa extracellular domain with C-terminal His tag (human, UniProt P12314 16-292); experiment: SPR, captured antibody, FcgR analyte
T4 construct: also called FcgRIa
T4 sequence (P12314 16-292): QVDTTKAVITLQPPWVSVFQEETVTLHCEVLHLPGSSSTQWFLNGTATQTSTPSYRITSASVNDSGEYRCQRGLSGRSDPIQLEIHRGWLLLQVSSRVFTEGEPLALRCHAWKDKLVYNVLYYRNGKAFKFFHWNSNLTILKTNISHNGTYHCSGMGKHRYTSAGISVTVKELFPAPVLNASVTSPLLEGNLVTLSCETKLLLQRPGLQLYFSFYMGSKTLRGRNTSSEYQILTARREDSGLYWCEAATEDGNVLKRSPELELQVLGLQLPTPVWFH
Method: (§1) Relative binding activities were calculated for the results of analyzing interactions with the respective FcγRs according to the following method.

[2] = molecular target: T1, FcγRIIb extracellular domain with …; experiment: SPR, captured antibody, FcgR analyte
Method: as §1

FcγRIIa type R [3] = molecular target: T2, FcγRIIa type R; experiment: SPR (Biacore); parent = IL6R-B3/IL6R-L
FcγRIIb [4] = molecular target: T3, FcγRIIb; experiment: SPR (Biacore); parent = IL6R-B3/IL6R-L
FcγRIIa type R [5] = molecular target: T2, FcγRIIa type R; experiment: SPR (Biacore), captured antibody, soluble FcγR
FcγRIa = molecular target: T5, FcγRIa (human, UniProt P12314 16-292); experiment: SPR (Biacore), captured antibody, soluble FcγR
T5 construct: Whole entry named; also called FcgRIa; CD64A
T5 sequence (P12314 16-292): as above

FcγRIIb [6] = molecular target: T3, FcγRIIb; experiment: SPR (Biacore), captured antibody, soluble FcγR

| Binder | relative binding activity [1] | relative binding activity [2] | KD(IIaR) of the parent polypeptide/KD(IIaR) of the altered polypeptide (FcγRIIa type R [3]) [fold] | KD(IIb) of the parent polypeptide/KD(IIb) of the altered polypeptide (FcγRIIb [4]) [fold] | Kd (FcγRIIa type R [5]) [nM] | Kd (FcγRIa) [nM] | Kd (FcγRIIb [6]) [nM] |
| --- | --- | --- | --- | --- | --- | --- | --- |
| B1 | 109 relative (IL6R-BF648/IL6R-L = 100) | 172 relative (IL6R-BF648/IL6R-L = 100) |  |  |  |  |  |
| B2 |  |  | 1 | 147 | 1100 | 0.82 | 21 |
| B3 |  |  |  |  | 270 | 29 | 6.9 |
| B4 |  |  |  |  | 160 | 9.4 | 4.1 |
| B5 |  |  | 1.2 | 131 | 920 | 0.79 | 24 |
| B6 |  |  |  |  | 110 | 4.5 | 2.4 |
| B7 |  |  | 0.5 | 27.4 | 2200 | 14 | 110 |
| B8 |  |  |  |  | 850 |  | 20 |
| B9 |  |  | 1.7 | 123 | 630 | 2.1 | 25 |
| B10 | 97 relative (IL6R-BF648/IL6R-L = 100) | 167 relative (IL6R-BF648/IL6R-L = 100) |  |  |  |  |  |
| B11 |  |  | 0.5 | 25.8 | 2000 | 10 | 120 |
| B12 |  |  |  |  | 100 | 2.6 | 2.9 |
| B13 | 113 relative (IL6R-BF648/IL6R-L = 100) | 173 relative (IL6R-BF648/IL6R-L = 100) |  |  |  |  |  |
| B14 |  |  |  |  | 120 | 3.1 | 3.4 |
| B15 |  |  |  |  | 92 | 11 | 4 |
| B16 |  |  | 0.6 | 33.7 | 1800 | 4.5 | 92 |
| B17 |  |  |  |  |  | 1 |  |

| Binder | relative binding activity [1] | relative binding activity [2] | KD(IIaR) of the parent polypeptide/KD(IIaR) of the altered polypeptide (FcγRIIa type R [3]) [fold] | KD(IIb) of the parent polypeptide/KD(IIb) of the altered polypeptide (FcγRIIb [4]) [fold] | Kd (FcγRIIa type R [5]) [nM] | Kd (FcγRIa) [nM] | Kd (FcγRIIb [6]) [nM] |
| --- | --- | --- | --- | --- | --- | --- | --- |
| B18 |  |  | 1.5 | 128 | 720 | 2.3 | 24 |
| B19 |  |  |  |  | 86 | 3.4 | 3.1 |
| B20 |  |  | 1.4 | 67.8 | 780 | 0.82 | 46 |
| B21 |  |  | 0.8 | 39.7 | 1300 | 1.3 | 78 |
| B22 |  |  | 4.3 | 471 | 250 | 3.9 | 6.6 |
| B23 |  |  |  |  | 6300 |  | 200 |
| B24 |  |  | 13.8 | 1200 | 80 | 2 | 2.6 |
| B25 | 110 relative (IL6R-BF648/IL6R-L = 100) | 165 relative (IL6R-BF648/IL6R-L = 100) |  |  |  |  |  |
| B26 |  |  | 1.2 | 55.5 | 900 | 5.3 | 56 |
| B27 |  |  |  |  | 91 | 9.3 | 3 |
| B28 |  |  | 2.8 | 160 | 400 | 1 | 19 |
| B29 |  |  |  |  | 97 | 3.2 | 2.6 |
| B30 |  |  |  |  |  | 1 |  |
| B31 |  |  |  |  | 120 | 9.4 | 3.8 |
| B32 |  |  | 2.2 | 321 | 490 | 8.3 | 9.7 |
| B33 |  |  |  |  | 94 | 12 | 3.2 |

From patent US20210261648A1 (published 2021)
